In the nanobody polyreactivity screen of Harvey et al. (2022):

assay: yeast display, Sf9 membrane polyspecificity reagent, FACS + sequencing; frameworks hold sequencing errors
Procedure, shortened: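 Sorting gates, low and high (top ~1%), were placed on anti-HA fluorescence to track expression and on streptavidin fluorescence to track reagent binding. A clone's polyreactivity label is taken from the gate it came out of. The reagent was 10% biotinylated, detergent-solubilized Sf9 membrane, applied for 1 hour at 4 °C to galactose-induced yeast display cells.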

| Sequence | polyreactivity (PSR sort gate) |
| --- | --- |
| QVQLVESGGGLVQAGGSLRLSCAASGSILRDHAMGWYRQATGKERELVAAITSGDSTHYADSVKGRFTISRDNAKNTVYLQMNSLKPEDTAVYYCATKWSLISIHGYYYWGQGTQVTVSS | low polyreactivity |
| QVQLVESGGGLVQAGVSLRISCAASGFTFPEYDMGWYRQAPGKERELVATISGNGGRTYYADSVKGRFTISRYNAKNTVYLQMNSLKPEDTAVYYCAALLYIRSVVYDYWGQGTQVTVSS | low polyreactivity |
| QVQLVESGGGLVQAGGSLRLSSAASGSTFDYYALGWYSQARGKERELVAAISTSGSSTYYADSVKGRFTISRDNAKNTVYLQMNSLKPVDTAVYYCAAPIRYKGGYWGQGTQVTVSS | low polyreactivity |
| QVQLVESGGGLVQAGGSLRLSCAATGRIFGRNAMGWYRQAPGKERELVAAINSGVSTYYADSVKGRFTISRDNAKNTVYLQMNSLKPQDTAVYYCANAPPRRYYDFDYWGQGTQVTVSS | low polyreactivity |
| QVQLVESGGGLVQAGGSLRLSCAASGIIFYPYAMGWYRQAPGKERELVAAISIGGGSTYYADSVKGRFTISRDYAKNTVYLQMNSLKPEDTAVYYFAAGTPYGILGFYYWGQGTQVTVSS | low polyreactivity |
| QVQLVESGGGLVQAGGSLRLSCAASGFIFQANPMGWYRPAPGKERELVAAIDDGDSTYADSVKGRFTISRDNAKNTVYLQMNSLKPEDTAVYYCATRRKRSYDYWGHGTQVTVSS | low polyreactivity |
| QVQLVESGGGLVQAGGSLRLSCASSGYIFRSYAMGWYRQAPGKERELVATISWIGGGTSYADSVKGRFTISRDNAKNTVYLQMNSLKPEDTAVYYCAAGPWAYGRRHAYYSRSFDYWGQGTQVTVSS | high polyreactivity |
| QVQLVESGGGLVQAGGSLRLSCAASGSTFPTYVMGWYRQAPGKERELVASINSDTGTYYADSVKGRFTISRDNAQNTVYLQMNSLKPEDTAVYYCNARQAYYFYPFEYDYWGQGTQVTVSS | low polyreactivity |
| QVQLVESGGGLVQAGGSLRLSCAASGSTFGVNAMGWYRQAPGKERELVAAITWSGDTTYYADSVKGRFTISRDNAKNTVYLQMNSLKPEDSAVYYCATYYYYPSWYLLYGDYNYWGQGTQVTVSS | low polyreactivity |
| QVQLVESGGGLVQAGGSLRLSCAASGTFSSYAMGWYRQAPGKERELVAAITNGGNTNYADSVKGRFTISRDNAKNTVYLQMNSLKPEDTAVYYCNARYGNESQGWEDYWGQGTQVTVSS | low polyreactivity |
| QVQLVESGGRLVQAGGSLRLSCAASGRTIVIYAMGWYRQAPGKEREFVAAISRSGGSTYYADSVKGRFTISRDNAKNTVYLQMNSLKPEDTAVYYCYTRTPYWFKSDYWGQGTQVTVSS | low polyreactivity |
| QVQLVESGGGLVQAGGSLRLSCAASGRTFKSYTLGWYRQAPGKEREFVAAISSRGGNTYYADSVNGRFTISRDNAKNTVYLQMNSLKPEDTAVYYSAAESSFWSFPTYDYWGQGTQVTVSS | high polyreactivity |
| QVQLVESGGGLVQAGGSLRLSCAASGSTFDTNAMGWYRQAPGKERELVATITSIGGSKYADSVKGRFTISRDNAKNTVYLQMNSLIPEDTAVYYCATDYVEIDYDYDYWGQGTQVSVSS | low polyreactivity |
| QVQLVESGGGLFQAGGSLRLSCAATGRTYEGNAMGWSIQAPGKERELVAAITSGGRTNYADSVKGRFSISRDNAKNTVDLQMNSLKPEDTAVYYCAVETRDRSNYFPGQAYDYWGQGTQVTVSS | low polyreactivity |
| QVQLVESGGGLVQAGGSLRISCAASGSTFWYYAMGWYRQAPGKERELVAAINSDDSTNYADSVKGRFTISRDNAKNTVYLQMNSLKPEDTAVYYCNRGFVYSTTGLWRYYDFDYWGQGTQVTVSS | low polyreactivity |
| QVQLVESGGGLVQAGGSLRLSCAASGFTFYRNAMGWYRQAPGKERELVAAITRRGGSTYYADSVKGRFTISRDNAKNTVYLQMISLKPEDTAVYYCSKSYRFPSVGPPGELDYWGQGTQVTVSS | high polyreactivity |
| QVQLVESGGGLVQAGGSLRLSCAASGRIFRTYAMGWYRQAPGKERELVAAITWSGGSTYYADSVKGRFTISRDNAKNTVYLQMNSLKPEDTAVYYCNALTPGYRIYDYWGQGTQVTVSS | high polyreactivity |
| QVQLVESGGGLVQAGGSLRLSCAASGSIFEQYTMGWYRQAPGKERELVAAISRRYGRTYYADSVKGRFTISRDNAKNTVYLQMNSLKPEETAVYYCNTVYYGNFYSTRYDYWGHGTQVTVSS | high polyreactivity |
| QVQLVESGGGLVQPGGSLRLSCAASGFIFGYYTMGWYRQAPGKERELVAVITSNGARTYYADSVKGRFTISRDNAKNTVYLQMNSLKPEDTAVYYCNAYRLSVSVGYDYWGQGTQVTVSS | high polyreactivity |
| QDQLVESRGGLVQAGGSLRLSCAASGSTFGKNTMGWYRQAPGKERELVAAISRGVSTYYADSVKGRFTISRDNAKNTVYLQMNSLKPEDTAVYYCAAQEAYRWYGFDYWGQGTQVTVSS | high polyreactivity |
| QVQLVESGGGLVQAGGSLRLSCAASGTTFAWNTMGWYRQAPGKERELVARISRRSVSTYYADSVKGRFTISRDNAKNTVYLQMNSLKPEDTAVYYCAADYFSYQKYDYWGQGTQVTVSS | low polyreactivity |
| QVQLVESGARLVQAGGSLRLSCAASGRTVAYNAMGWSREAAGKEREVDPAISRRGGSTYYADSVKGRFTISRDNAKNTVNLQMNSLKPEDTAVYYCASRRLRRASSLDYWGQGSQVTVSS | high polyreactivity |
| QVQLVESGGGLVQAGGSLSLSCAASGSIFRSYAMGWYRQAPGKERELVAAITNGGSTYYADSVKGRFTISRDNAKNTVYLQMNSLKPEDTAVYYCAAARYTYWFYLVKKTGYYWGQGTQVTVSS | high polyreactivity |
| QVQLEESGGCLVQAGGSLRLSCAATGITFYLYAMGWYRHAPGKERELVAAINSGGSTSYADSVKGRFTISRDNAKNTVYLQMNSLKTEDTADYYCNKLFLKFWGHQYGYWGQGTQVTVSS | high polyreactivity |
| QVQLVESGGGLGQAGGSLRLICAASGRTFLYNAMGWYRQAPGNERELVASITSGGSTNYADSVKGRFTISRDNAKNTVNLQMNSVKPEDTAVYYCAADERRPYWQHSIGSGRPFDYWGQGTQVTVSS | low polyreactivity |
| QVHLVESVGGLVQAGGSLRLSCAASGRIFGYYAMGWYRQAPGKERELVAAISTNGGTTYYADSVKGRFTISRDNAKNTVYLQMNSLKPEDTAVYYCAATYTVPGHARYDYWGQGTQVTVSS | low polyreactivity |
| QVQLVESGGGLVQAGGSLRLSCAASGSTFFTNAMAWYRQSPGKERELVASISFSGGRTYYADSVKGRFTISRDNAKNTVYLQMNSLKPEDTAVYYCAARRYRYTRYDYWGQGTQVTVSS | high polyreactivity |
| QVQLVESGGGLVQAGGSLRLSCAASGNTFRFYTMGWYRQAPGKERELVAAINSSGRTNYADSVKGRFTISRDNAKNTVYLQMNSLKPEDTAVYYCAADYYQWSSFLGVYEYDYWGQGTQVTVSS | low polyreactivity |
| QVQLVESGGGLVQAGGSLRLSCAASGITFGKNAMGWYRQAPGKERELVATIRRSGGSTYADSVKGRFTISRDNAKNTVYLQMNSLKPEDTAVYYCNARSWNTYNYWGQGTQVTVSS | high polyreactivity |
| QVQLLESGGGLVQAGGSLRLSCAASGRTFRYYTMGWYRQAPGKEREFVDAISSTGGTYYADSVKGRFTISRDNAKNTVYLQMNCLKPEDTAVYYCAATFIQVVVNVQLYDYDYWGQGTQVTVSS | low polyreactivity |
